Reference: patent US20140370563A1, “COMPOSITIONS AND METHODS FOR THE RELIEF OF INHIBITION OF ALDEHYDE DECARBONYLASE” (priority 2011, published 2014)
Entries after “also recorded” stand apart in the source; their conditions may differ.

Key:
[1] = target: T1, aldehyde decarbonylase (ADC) (Prochlorococcus marinus, UniProt Q7V6D4); assay: decarbonylase assay (octadecanal to alkane, GC/MS); format: biochemical
T1 construct: made in house; host or cells: E. coli BL21 (DE3) Gold
T1 sequence (Q7V6D4 1-243): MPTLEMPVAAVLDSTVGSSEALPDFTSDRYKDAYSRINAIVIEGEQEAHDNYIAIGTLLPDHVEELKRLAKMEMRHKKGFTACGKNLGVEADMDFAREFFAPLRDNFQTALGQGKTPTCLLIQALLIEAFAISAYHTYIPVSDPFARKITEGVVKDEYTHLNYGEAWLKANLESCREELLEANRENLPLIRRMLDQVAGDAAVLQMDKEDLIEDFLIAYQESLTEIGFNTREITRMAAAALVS
Procedure: (§1) Typical decarbonylase assays were 0.25 mL and contained 25 mM Tris-Cl pH 7.5, 0.1% Triton X-100, 1 mM DTT, 50 μg/mL maize root ferredoxin and 1 U/mL anabaena vegetative ferredoxin reductase (Cahoon et al. 1997, PNAS 94:4872-4877.), 2 mM NADPH, 200 μM octadecanal, and between 0.2-5 μM ADC or CAT-ADC. A 20 mM octadecanal stock was freshly prepared by sonicating powder in 10% Triton X-100. Octadecanal was obtained from ISCA technologies. When indicated catalase (Sigma C-9322) was added to a final concentration of 4 mg/mL from a 20 mg/mL stock dissolved in 100 mM PIPES pH 6.0. For assays performed in 100% oxygen a reaction master mix without NADPH and a separate NADPH solution were prepared by repeated purging of the sample cell with 100% O2 and vacuum with the use of a Schlenk line. Reactions were initialed by addition of either enzyme, substrate, or NADPH and were incubated at 37° C. and stopped by the addition of an equal volume of ethyl acetate. The organic phase was separated by GC/MS on an HP-5 ms column with oven temperature increasing from 75° C. to 320° C. at 40° C./min with a flow rate of 1.3 ml/min. Substrate and product were identified by comparison to authentic standards.

[2] = substrate: CCCCCCCCCCCCCC=O; assay: Decarbonylase assay: kinetics of aldehyde decarbonylase activity with aldehyde substrates of different lengths (FIG. 8); recombinant ADC, GenBank CAE21406.1, with N-terminal MGSDKIHHHHHHENLYFQG tag, expressed in E. coli BL21 (DE3) Gold; no mutations stated; format: biochemical, Prochlorococcus marinus; settings: other: aldehyde as substrate, typical assay 25 mM Tris-Cl pH 7.5, 0.1% Triton X-100, ferredoxin, ferredoxin reductase, 2 mM NADPH, 37° C., GC/MS
Description: (§2) A catalase transcriptional fusion was produced as described below. […] The Catalase used was Ec catalase (GenBank Accession No. U00092.2) though the present invention is not limited to the use of this particular catalase. The ADC used was Pm ADC (GenBank Accession No. CAE21406.1). The ADC contains a diiron site. ADCs utilizing other metals are also suitable for use. For example, ribonucleotide reductase, which is normally a diiron protein can also use Mn (manganese) (Metallomics, 2011, 3(2):110-120, ePub […] Jan. 25). The catalase and ADC sequences were connected by a 20 amino acid linker: […] [SEQ ID NO: 8]. A 6×His-tag was added to the 3′ end for simplified purification. The recombinant catalase-ADC fusion (hybrid) protein (CAT-ADC or CA) was produced using the T7 expression system in E. coli and was purified using Ni-NTA agarose resin.
(§3) The pSpeedET T7 inducible bacterial expression plasmid containing the coding sequence for Prochlorococcus marinus aldehyde decarbonylase (ADC, GenBank: CAE21406.1 [SEQ ID NO: 1]) fused with an N-terminal MGSDKIHHHHHHENLYFQG [SEQ ID NO: 2] tag as constructed by the Joint Center for Structural Genomics, was obtained from the DNASU plasmid repository. The E. coli catalase (katE GenBank: U00096.2 [SEQ ID NO: 3]) ADC fusion protein (CAT-ADC) was constructed by overlap extension PCR. Primers for catalase were: forward—[…] [SEQ ID NO: 4] and reverse—[…] TTTGTCAATCTTAGG [SEQ ID NO: 5]. Primers for ADC were: forward—[…] TTGAGATGCCT [SEQ ID NO: 6] and reverse—[…] [SEQ ID NO: 7]. The final construct contained catalase followed by a 20 amino acid flexible linker domain ([…] [SEQ ID NO: 8]) (Martin et al 2005, Nature 473:1115-1120.) followed by ADC and finally a C-terminal hexahistidine tag and was cloned into the NdeI and XhoI sites of pET24b.
(§4) E. coli BL21 (DE3) Gold cells containing various plasmids were grown at 37° C. to an OD600 of 0.4, were induced with 0.4 mM IPTG, and were grown for an additional 4 hours at 37° C. for ADC or 30° C. for CAT-ADC. Cell pellets were suspended in 20 mM Tris-Cl pH 7.5, 150 mM NaCl, 20 mM imidazole, 5 mM MgCl2, and 0.1 mg/mL DNase and were lysed using a French pressure cell. Cellular debris was removed by centrifugation at 40,000×g for 20 min. Recombinant proteins were purified from the soluble fraction with Ni-NTA resin (Qiagen). Wash and elution buffers were 20 mM Tris-Cl pH 7.5, 300 mM NaCl, and 25 or 250 mM imidazole, respectively. Eluted proteins were immediately exchanged into 20 mM HEPES pH 7.8, 200 mM NaCl using PD-10 desalting columns. Protein concentration was determined with Bradford Assay (Sigma).
as §1

[3] = substrate: CCCCCCCC=O; assay: as above; format: biochemical, Prochlorococcus marinus; settings: other: aldehyde as substrate, typical assay 25 mM Tris-Cl pH 7.5, 0.1% Triton X-100, ferredoxin, ferredoxin reductase, 2 mM NADPH, 37° C., GC/MS
Description: as §2, §3, §4, §1

[4] = substrate: CCCCCCCCCCCCCCCCCC=O; assay: as above; format: biochemical, Prochlorococcus marinus; settings: other: aldehyde as substrate, typical assay 25 mM Tris-Cl pH 7.5, 0.1% Triton X-100, ferredoxin, ferredoxin reductase, 2 mM NADPH, 37° C., GC/MS
Description: as §2, §3, §4, §1

[5] = substrate: CCCCCCCCCCCC=O; assay: as above; format: biochemical, Prochlorococcus marinus; settings: other: aldehyde as substrate, typical assay 25 mM Tris-Cl pH 7.5, 0.1% Triton X-100, ferredoxin, ferredoxin reductase, 2 mM NADPH, 37° C., GC/MS
Description: as §2, §3, §4, §1

[6] = substrate: CCCCCCCCCCCCCCCC=O; assay: as above; format: biochemical, Prochlorococcus marinus; settings: other: aldehyde as substrate, typical assay 25 mM Tris-Cl pH 7.5, 0.1% Triton X-100, ferredoxin, ferredoxin reductase, 2 mM NADPH, 37° C., GC/MS
Description: as §2, §3, §4, §1

[7] = substrate: CCCCCCCC/C=C\CCCCCCCC=O; assay: as above; format: biochemical, Prochlorococcus marinus; settings: other: aldehyde as substrate, typical assay 25 mM Tris-Cl pH 7.5, 0.1% Triton X-100, ferredoxin, ferredoxin reductase, 2 mM NADPH, 37° C., GC/MS
Description: as §2, §3, §4, §1

[8] = substrate: CCCCCCCCCC=O; assay: as above; format: biochemical, Prochlorococcus marinus; settings: other: aldehyde as substrate, typical assay 25 mM Tris-Cl pH 7.5, 0.1% Triton X-100, ferredoxin, ferredoxin reductase, 2 mM NADPH, 37° C., GC/MS
Description: as §2, §3, §4, §1

[9] = target: T1, aldehyde decarbonylase (ADC); settings: in the absence of catalase; Warui et al. 2011; cited from earlier work

For `OO` [H2O2, hydrogen peroxide, reference compound], the “inhibition of ADC by H2O2 in low oxygen atmosphere” value ([1]; 4% (50 μM) atmosphere) was “enhanced”, the “inhibition of ADC by H2O2 in oxygen atmosphere” value ([1]; 100% O2 (1250 μM) atmosphere, FIG. 2) was “lessened” and the “inhibition of ADC activity by H2O2” value ([1]; H2O2 added to decarbonylase assays, FIG. 1A / FIG. 2) was “selectively inhibited; also recorded: increasing inhibition”.

B1: aldehyde decarbonylase (ADC) (Prochlorococcus marinus str. MIT 9313) (protein)
chain: MPTLEMPVAAVLDSTVGSSEALPDFTSDRYKDAYSRINAIVIEGEQEAHDNYIAIGTLLPDHVEELKRLAKMEMRHKKGFTACGKNLGVEADMDFAREFFAPLRDNFQTALGQGKTPTCLLIQALLIEAFAISAYHTYIPVSDPFARKITEGVVKDEYTHLNYGEAWLKANLESCREELLEANRENLPLIRRMLDQVAGDAAVLQMDKEDLIEDFLIAYQESLTEIGFNTREITRMAAAALVS
notes: … (His6 tag) (N); made in house; host or cells: E. coli BL21 (DE3) Gold
B1 showed a Km [2] of 18.9 ± 1.7 µM, a Km [3] of 27.7 ± 9.9 µM and a Km [4] of 41.3 ± 4.8 µM. It also gave a Km [5] of 45.3 ± 18.5 µM, a Km [6] of 30.1 ± 4.2 µM and a Km [7] of 44.4 ± 7.2 µM. The Km [8] was 29.5 ± 6.2 µM.

B2: ADC: Prochlorococcus marinus aldehyde decarbonylase, GenBank CAE21406.1, N-terminal His tag (protein, UniProt Q7V6D4 1-243, looked up)
Aldehyde decarbonylase: MPTLEMPVAAVLDSTVGSSEALPDFTSDRYKDAYSRINAIVIEGEQEAHDNYIAIGTLLPDHVEELKRLAKMEMRHKKGFTACGKNLGVEADMDFAREFFAPLRDNFQTALGQGKTPTCLLIQALLIEAFAISAYHTYIPVSDPFARKITEGVVKDEYTHLNYGEAWLKANLESCREELLEANRENLPLIRRMLDQVAGDAAVLQMDKEDLIEDFLIAYQESLTEIGFNTREITRMAAAALVS
modifications: N-terminal His tag
notes: Prochlorococcus marinus aldehyde decarbonylase, GenBank CAE21406.1, N-terminal His tag
In the case of B2, the “turnovers of ADC before it becomes inactive” value [9] is listed as “approximately three”, the “sensitivity of decarbonylase activity to H2O2 inhibition” value ([1]; 200 μM substrate, 1 mM H2O2 added, FIG. 6A) is listed as “inhibited by H2O2” and the “decarbonylase activity with or without added catalase” value ([1]; 200 μM substrate, excess NADPH, ferredoxin, FNR, FIG. 6A) is listed as “highest activity only when catalase was added”. For the same molecule, the “time after which ADC activity was inhibited” value ([1]; without catalase, FIG. 1B) was “about 15 min” and the “turnovers until ADC activity was inhibited” value ([1]; without catalase, FIG. 1B) was “about 3 turnovers”.

B3: catalase: catalase enzyme (Sigma C-9322) added at 4 mg/mL; converts hydrogen peroxide to water and oxygen (protein, UniProt P00432 2-527, looked up)
Catalase: ADNRDPASDQMKHWKEQRAAQKPDVLTTGGGNPVGDKLNSLTVGPRGPLLVQDVVFTDEMAHFDRERIPERVVHAKGAGAFGYFEVTHDITRYSKAKVFEHIGKRTPIAVRFSTVAGESGSADTVRDPRGFAVKFYTEDGNWDLVGNNTPIFFIRDALLFPSFIHSQKRNPQTHLKDPDMVWDFWSLRPESLHQVSFLFSDRGIPDGHRHMNGYGSHTFKLVNANGEAVYCKFHYKTDQGIKNLSVEDAARLAHEDPDYGLRDLFNAIATGNYPSWTLYIQVMTFSEAEIFPFNPFDLTKVWPHGDYPLIPVGKLVLNRNPVNYFAEVEQLAFDPSNMPPGIEPSPDKMLQGRLFAYPDTHRHRLGPNYLQIPVNCPYRARVANYQRDGPMCMMDNQGGAPNYYPNSFSAPEHQPSALEHRTHFSGDVQRFNSANDDNVTQVRTFYLKVLNEEQRKRLCENIAGHLKDAQLFIQKKAVKNFSDVHPEYGSRIQALLDKYNEEKPKNAVHTYVQHGSHLSAREKANL
For B3, the “relief of inhibition by catalase in all electron transport systems studied” value ([1]; Maize FNR/anabaena Fd, Spinach FNR/ferredoxin, PMS/NADH, FIG. 10) was “relieves the inhibition”, the “relief of H2O2 inhibition of ADC by added catalase” value ([1]; catalase added, 0, 1 or 10 mM H2O2 (FIG. 3), FIG. 1B) was “restoration of ADC activity; also recorded: effective in overcoming the H2O2 induced inhibition of ADC” and the “turnovers of the ADC reaction in the presence of catalase” value ([1]; excess aldehyde substrate, NADPH, ferredoxin NADPH reductase and ferredoxin, 16 hrs (FIG. 9)) was “greater than 150 turnovers”.
